From the RNAGym collection of RNA variant scans (doi:10.1073/pnas.2313332121)
Fewer inactive variants are shown than the library holds.

B1: TPR 5TU (parent)
chain: GGAUCUUCUCGAUCUAACAAAAAAGACAAAUCUGCCACAAAGCUUGAGAGCAUCUUCGGAUGCAGAGGCGGCAGCCUUCGGUGGCGCGAUAGCGCCAACGUUCUCAACUAUGACACGCAAAACGCGUGCUCCGUUGAAUGGAGUUUAUCAUG

Variants of: B1
Experiment: polymerase ribozyme fitness, log enrichment relative to wild type (log ratio); higher = more active; in vitro selection for triplet polymerase activity
In short: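 The heterodimeric triplet polymerase ribozyme's subunits were each mutagenized into PCR-built libraries and transcribed. Every library was selected once, in triplicate, by annealing with a biotinylated primer, the partner subunit and triplets, incubating frozen at −7 °C, gel-excising extended constructs, capturing on streptavidin beads and running RT-PCR. Input and output libraries were Illumina-sequenced, with genotypes kept only at ≥10 input reads and ≥1 read per output. Fitness, from inverse-variance-weighted replicate averages, is the base-2 logarithm of genotype enrichment over wild-type enrichment.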

Variant | polymerase ribozyme fitness (log ratio)
GGAUCUUCUCGAUCUAACAAAAAAGACAAAUCUGCCACAAAGCUUGAGAGCAUCUUCGGAUGCAGAGGCGGCAGCCUUCGGUGGCGCGAUAGCGCUAACGUUCUGAACUAUGACACGCAAAACGCGUGCUCCGUUGAAUGGAGAUUAUCAUG [C96U C105G U144A] | -1.81
GGAUCUUCUCGAUCUAACAAAAAAGACAAAUCUGCCACAAAGCUUGAGAGCAUCUUCGGAUGCAGAGGCGGCAGCCUUCGGUGGCGCGAUAGCGCUAACGUUCUCAACUGUGAUACGCAAAACGCGUGCUCCGUUGAAUGGGGUUUAUCAUG [C96U A110G C114U A142G] | -4.07
GGAUCUUCUCGAUCUAACAAAAAAGACAAAUCUGCCACAAAGCUUGAGAGCAUCUUCGGAUGCAGAGGCGGCAGCCUUCGGUGGCGCGAUAGCGCUAACGUUCUCAACUAUGACUCGCAAAACGCGUGCUCCGUUGAAUGGAGUAUAUCAUG [C96U A115U U145A] | -1.79
GGAUCUUCUCGAUCUAACAAAAAAGACAAAUCUGCCACAAAGCUUGAGAGCAUCUUCGGAUGCAGAGGCGGCAGCCUUCGGUGGCGCGAUAGCGCGAACGUUCUCAACUAUGACACGCAAAACGCGUGCUCCGUUGAAUGGAGUUUAUCAUC [C96G G152C] | -3.62
GGAUCUUCUCGAUCUAACAAAAAAGACAAAUCUGCCACAAAGCUUGAGAGCAUCUUCGGAUGCAGAGGCGGCAGCCUUCGGUGGCGCGAUAGCGCGAACGUUCGCAACUAUGACACGCAAAACGCGUGCUCCGUUGAAUGUAGUUUAUCAUG [C96G U104G G141U] | -1.2
GGAUCUUCUCGAUCUAACAAAAAAGACAAAUCUGCCACAAAGCUUGAGAGCAUCUUCGGAUGCAGAGGCGGCAGCCUUCGGUGGCGCGAUAGCGCUAAUGUUCUCAACUAUGACACGCAAAACGCGUGCUCCGUUGAAUGGAGUUUAUCAUG [C96U C99U] | -0.378
GGAUCUUCUCGAUCUAACAAAAAAGACAAAUCUGCCACAAAGCUUGAGAGCAUCUUCGGAUGCAGAGGCGGCAGCCUUCGGUGGCGCGAUAGCGCUAAAGUUCUCAACUAUGACACGCAAAACGCGUGCUCCGUUGAAUGGAGUUUAUCAUG [C96U C99A] | -1.51
GGAUCUUCUCGAUCUAACAAAAAAGACAAAUCUGCCACAAAGCUUGAGAGCAUCUUCGGAUGCAGAGGCGGCAGCCUUCGGUGGCGCGAUAGCGCGAACGUUCUCAACUACGACACGCAAAACGCGUGCUCCGUUGAAUGGAGUUUAUCAUG [C96G U111C] | -3.62
GGAUCUUCUCGAUCUAACAAAAAAGACAAAUCUGCCACAAAGCUUGAGAGCAUCUUCGGAUGCAGAGGCGGCAGCCUUCGGUGGCGCGAUAGCGCUAACGUUCUCAACUAUGACGCGCAAAACGCGUGCUCCGUUGAAUGGAGUUUAACAUG [C96U A115G U148A] | -3.95
GGAUCUUCUCGAUCUAACAAAAAAGACAAAUCUGCCACAAAGCUUGAGAGCAUCUUCGGAUGCAGAGGCGGCAGCCUUCGGUGGCGCGAUAGCGCUAACGUUCUCAACUAUGACACGCAAAACGCGUGCUCCGUUGAAUGGAGUUUAUCUUG [C96U A150U] | -0.525
GGAUCUUCUCGAUCUAACAAAAAAGACAAAUCUGCCACAAAGCUUGAGAGCAUCUUCGGAUGCAGAGGCGGCAGCCUUCGGUGGCGCGAUAGCGCUAACGUUCUCAACUAUGACACGCAAAACGCGUGCUCCGUUGAAUGGAGUUUAUCCUG [C96U A150C] | -3.31
GGAUCUUCUCGAUCUAACAAAAAAGACAAAUCUGCCACAAAGCUUGAGAGCAUCUUCGGAUGCAGAGGCGGCAGCCUUCGGUGGCGCGAUAGCGCGAACGUUCUCAACUAUGACACGCAAAACGCGUGCUCCGUUGAAUGGAUUUUAUCAUG [C96G G143U] | -3.01
GGAUCUUCUCGAUCUAACAAAAAAGACAAAUCUGCCACAAAGCUUGAGAGCAUCUUCGGAUGCAGAGGCGGCAGCCUUCGGUGGCGCGAUAGCGCGAACGUUCUCAACUAUGACACGCAAAACGCGUGCUCCGUUGAAUGGAAUUUAUCAUG [C96G G143A] | -2.42
GGAUCUUCUCGAUCUAACAAAAAAGACAAAUCUGCCACAAAGCUUGAGAGCAUCUUCGGAUGCAGAGGCGGCAGCCUUCGGUGGCGCGAUAGCGCGAACGUUCUCAACUAUGACACGCAAAACGCGUGCUCCGUUGAAUGGAGUUUAGCAUG [C96G U148G] | -4.12
GGAUCUUCUCGAUCUAACAAAAAAGACAAAUCUGCCACAAAGCUUGAGAGCAUCUUCGGAUGCAGAGGCGGCAGCCUUCGGUGGCGCGAUAGCGCGAACGUUCUCAACUAUGACACGCAAAACGCGUGCUCCGUUGAAUGGAGUUUACCAUG [C96G U148C] | -1.42
GGAUCUUCUCGAUCUAACAAAAAAGACAAAUCUGCCACAAAGCUUGAGAGCAUCUUCGGAUGCAGAGGCGGCAGCCUUCGGUGGCGCGAUAGCGCUAACGUUCUCAACUAUGACACGCAAAACGCGUGCUCCGUUGCAUGGAGUUUAUCAUG [C96U A137C] | -3.39
GGAUCUUCUCGAUCUAACAAAAAAGACAAAUCUGCCACAAAGCUUGAGAGCAUCUUCGGAUGCAGAGGCGGCAGCCUUCGGUGGCGCGAUAGCGCUAACGUUCUCAACUGUGACACGCAAAACGCGUGCUCCGUUGAAUGGAGUUUAUCAUG [C96U A110G] | -3.55
GGAUCUUCUCGAUCUAACAAAAAAGACAAAUCUGCCACAAAGCUUGAGAGCAUCUUCGGAUGCAGAGGCGGCAGCCUUCGGUGGCGCGAUAGCGCUAACGUUCUCAACUAUGACUCGCAAAACCCGUGCUCCGUUGAAUGGAGUUUAUCACG [C96U A115U G124C U151C] | ≤ -4.2
GGAUCUUCUCGAUCUAACAAAAAAGACAAAUCUGCCACAAAGCUUGAGAGCAUCUUCGGAUGCAGAGGCGGCAGCCUUCGGUGGCGCGAUAGCGCUAACGUUCUCAACUAUGACACGCCAAACGCGUGCUCCGUUGAAUGGAGUUUAUCAUG [C96U A119C] | -1.05
